This is an account of results in patent US20230048360A1 (EUREKA THERAPEUTICS, published 2023).

Experiment [1] concerns the target T1, cell surface-bound human GPC3 on GPC3+ HepG2 cells (human, UniProt P51654 25-560, GPI anchor and heparin sulfate side chains, as the filing describes native GPC3).
T1 construct: Endogenous GPC3 of the HepG2 line; also called Glypican 3; native GPC3
Kind of experiment: apparent Kd from FACS on GPC3+ HepG2 cells.
Procedure: (§1) APC-conjugated anti-His tag mouse antibody (R&D Systems) was added in a volume of 100 μl, a 20-fold dilution of 5% FBS in PBS and 0.05% NaN₃ and incubated for 1 hour at 4° C. in the dark, then washed twice with PBS. The cells were fixed in 3-fold dilution of fixation buffer (BioLegend) in PBS in a volume of 150 μl. As a separate control, HepG2 cells were also incubated with APC-conjugated anti-His tag mouse antibody (R&D Systems) in the absence of any L2K bispecific antibody.

The target of experiment [2] is T1, cell surface-bound human GPC3 on GPC3+ …. Kind of experiment: FACS titration on GPC3+ HepG2 cells, anti-His detection.
Procedure: as §1
Experiment [3] concerns the target T2, biotinylated recombinant human GPC3(560) (human, biotin on the C-terminal BirA substrate peptide ; Biotin on a lysine of the C-terminal BirA substrate peptide, which is not in the letters.).
T2 construct: Made in E. coli BL21 (pET-27b) from inclusion bodies and biotinylated with BirA; also called bt-GPC3(560); soluble bt-GPC3(560) protein
Kind of experiment: SPR, Biacore X100, single-cycle kinetics, bt-GPC3(560) captured on chip, 1:1 model. On the technique in general: SPR reads the build-up and loss of mass on a sensor chip optically.
Procedure: All of the proteins used in the assay were diluted in HBS-E buffer prior to use. Briefly, 5-10 μg/ml of bt-GPC3₍₅₆₀₎ was immobilized onto a sensor chip pre-functionalized with CAPture Reagent and injected onto the flow cell. Affinity of the L2K bispecific antibodies for immobilized antigen was measured by injection of the various bispecific antibodies at 0.3-5 mg/ml with a 90 second association phase followed by a 90 second dissociation phase at a flow rate of 30 μl/min. At the end of each run, the surface of the sensor chip was regenerated using the reagents provided in the Biotin CAPture kit. Binding constants were determined by nonlinear regression analysis using a 1:1 binding model (BIACORE™ X-100 evaluation software, FIGS. 15A and 15B). The association-on-rate-kₒₙ, affinity constant-kₐ, dissociation constant-kd, and equilibrium dissociation constant-Kd were then calculated for each L2K clone (Table 14).

Experiment [4] concerns the target T1, cell surface-bound human GPC3 on GPC3+ …. Kind of experiment: FACS on GPC3+ HepG2 cells, labelled on the sheet GPC3A L2K against control L2K; control L2K median 93.8; axis PE-A.
Procedure: APC-conjugated anti-His tag mouse antibody (R&D Systems) was added in a volume of 100 μl, a 20-fold dilution of 5% FBS in PBS and 0.05% NaN₃ and incubated for 1 hour at 4° C. in the dark, then washed twice with PBS. The cells were fixed in 3-fold dilution of fixation buffer (BioLegend) in PBS in a volume of 150 μl.
Experiment [5] deals with T3, full-length human GPC3 over-expressed on SK-Hep1-GPC3 cells (human, UniProt P51654 25-560).
T3 construct: also called GPC3 over-expressing SK-Hep1 cells
Kind of experiment: FACS, GPC3A L2K on SK-Hep1-GPC3 cells, APC anti-His; same L2K on GPC3-negative SK-Hep1 median 61.6. Background: In flow cytometry, cells or beads pass a laser one at a time.
Procedure: Cells were then washed once with PBS. APC-conjugated anti-His tag mouse antibody (R&D Systems) was added to the washed cells in a volume of 100 μl, at 20-fold dilution of 5% FBS in PBS and 0.05% NAN₃ and incubated for 1 hour at 4° C. in the dark. The cells were then washed twice with PBS. The cells were fixed in 3-fold dilution of fixation buffer (BioLegend) in PBS in a volume of 150 μl.

Experiment [6] concerns the target T1, cell surface-bound human GPC3 on GPC3+ …. Kind of experiment: FACS, mIgG1 on GPC3-positive HepG2 cells, PE anti-mouse IgG (H and L); control mIgG1 median 93.8.

B1: GPC3A-37 L2K (bispecific antibody)
chain: QSVLTQPPSVSAAPGQRVTISCSGTRSNIGSDYVSWYQHLPGTAPKLLVYGDNLRPSGIPDRFSASKSGTSATLGITGLQTGDEADYYCGTWDYTLNGVVFGGGTKLTVLGSRGGGGSGGGGSGGGGSLEMAQVQLVESGGGLVQPGGSLRLSCAASGFTFSSYAMSWVRQAPGKGLEWVSVIYSGGSSTYYADSVKGRFTISRDNSKNTLYLQMNSLRAEDTAVYYCARTSYLNHGDYWGQGTLVTVSSTSGGGGSDVQLVQSGAEVKKPGASVKVSCKASGYTFTRYTMHWVRQAPGQGLEWIGYINPSRGYTNYADSVKGRFTITTDKSTSTAYMELSSLRSEDTATYYCARYYDDHYCLDYWGQGTTVTVSSGEGTSTGSGGSGGSGGADDIVLTQSPATLSLSPGERATLSCRASQSVSYMNWYQQKPGKAPKRWIYDTSKVASGVPARFSGSGSGTDYSLTINSLEAEDAATYYCQQWSSNPLTFGGGTKVEIKHHHHHH
notes: also called anti-CD3/anti-GPC3 BsAb
The term EC50 denotes the midpoint of the concentration-response curve. As usually defined, the koff is the first-order rate constant of dissociation. Usually kon stands for the second-order rate constant of association. Consider B1, for which the Kd in experiment [1] is 0.92 nM. The EC50 in experiment [2] turned out to be 0.048 µg/mL. Also, in experiment [3], the Kd worked out at 5.1 nM, the koff was 0.00289 s⁻¹ and the kon was determined as 567000 M⁻¹ s⁻¹.

B2: #39 GPC3A L2K (bispecific antibody)
tandem di-scFv: SYVLTQPPSVSVAPGKTARITCGGNNIGSKSVHWYQQKPGQAPVLVIYYDSDRPSGIPERFSGSNSGNTATLTISRVEAGDEADYYCQVWDSSSDHWVFGGGTKLTVLGSRGGGGSGGGGSGGGGSLEMAQVQLVQSGGGLVHPGGSLRLSCAGSGFTFSSYAMHWVRQAPGKGLEWVSAIGTGGGTYYADSVKGRFTISRDNAKNSLYLQMNSLRAEDTAVYYCARYGRKSIDAWGQGTLVTVSSTSGGGGSDVQLVQSGAEVKKPGASVKVSCKASGYTFTRYTMHWVRQAPGQGLEWIGYINPSRGYTNYADSVKGRFTITTDKSTSTAYMELSSLRSEDTATYYCARYYDDHYCLDYWGQGTTVTVSSGEGTSTGSGGSGGSGGADDIVLTQSPATLSLSPGERATLSCRASQSVSYMNWYQQKPGKAPKRWIYDTSKVASGVPARFSGSGSGTDYSLTINSLEAEDAATYYCQQWSSNPLTFGGGTKVEIKHHHHHH
notes: also called GPC3A-39 L2K
B2: the “Median : PE-A” value in experiment [4] turned out to be 6380. Also, the “Median : APC-A” value in experiment [5] amounted to 445.

B3: anti-GPC3 mIgG1 clone A-39 (antibody, V domains shown)
VH: QVQLVQSGGGLVHPGGSLRLSCAGSGFTFSSYAMHWVRQAPGKGLEWVSAIGTGGGTYYADSVKGRFTISRDNAKNSLYLQMNSLRAEDTAVYYCARYGRKSIDAWGQGTLVTVSS
VL: SYVLTQPPSVSVAPGKTARITCGGNNIGSKSVHWYQQKPGQAPVLVIYYDSDRPSGIPERFSGSNSGNTATLTISRVEAGDEADYYCQVWDSSSDHWVFGGGTKLTVLG
notes: also called anti-GPC3 mIgG1 A-39
For the molecule B3, the “Median : PE-A” value in experiment [6] came to 6380.

B4: anti-GPC3 mIgG1 clone A-58 (antibody, V domains shown)
VH: QVQLVQSGADVRKPGASVKVSCKASGYTFASHGISWVRQAPGQGLEWLGWISPYTGNTNYAQKFQGRVTMATDTSTSTAYMELRSLRSDDTAIYYCARGKRTLASCFDYWGQGTLVTVSS
VL: QSVLTQPPSVSVAPGKTARITCGGNNIGSKSVHWYQQKPGQAPVLVVYDDSDRPSGIPERFSGSNSGNTATLTISRVEAGDEADYYCQVWDSSSDHVFGTGTKVTVLG
notes: Fused to mouse IgG1 heavy chain and light chain constant regions; also called GPC3A mIgG1 clone A-58
In the case of B4, in experiment [6], the “Median : PE-A” value was 8030.

B5: anti-GPC3 mIgG1 clone A-56 (antibody, V domains shown)
VH: QVQLQQSGAEVKKFGASVKVSCKASGYSFNDYYIHWVRQAPGQGLEWMGWINPNNGDTKYEKKWQGRVTMTRDTSITTAYMELSSLRSDDTAVYYCARFSTHNWWWPTYDYWGQGTLVTVSS
VL: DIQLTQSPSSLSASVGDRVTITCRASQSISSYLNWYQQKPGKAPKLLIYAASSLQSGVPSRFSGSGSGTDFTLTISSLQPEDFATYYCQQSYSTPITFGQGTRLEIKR
notes: Fused to mouse IgG1 heavy chain and light chain constant regions
For the molecule B5, the “Median : PE-A” value in experiment [6] worked out at 5630.

B6: #51 GPC3A L2K (bispecific antibody)
tandem di-scFv: QAVLTQPSSASGAPGQRVTISCTGGSSNIGAGYDVHWYQQLPGTAPKLLIYGNSNRPSGVPDRFSGSKSGTSASLAITGLQAEDEADYYCQSYDSSLSGYVFGTGTKVTVLGSRGGGGSGGGGSGGGGSLEMAQVQLVQSGAEVKKPGSSVKVSCKASGGAFSSYAISWVRQAPGQGLEWMGGIIPIFGTANYAQKFQGRVTITADESTSTAYMELSSLRSEDTAVYYCARMLYLSGRYYWDSWGQGTLVTVSSTSGGGGSDVQLVQSGAEVKKPGASVKVSCKASGYTFTRYTMHWVRQAPGQGLEWIGYINPSRGYTNYADSVKGRFTITTDKSTSTAYMELSSLRSEDTATYYCARYYDDHYCLDYWGQGTTVTVSSGEGTSTGSGGSGGSGGADDIVLTQSPATLSLSPGERATLSCRASQSVSYMNWYQQKPGKAPKRWIYDTSKVASGVPARFSGSGSGTDYSLTINSLEAEDAATYYCQQWSSNPLTFGGGTKVEIKHHHHHH
notes: also called GPC3A-51 L2K
With B6, the “Median : PE-A” value in experiment [4] came to 12200. Further, in experiment [5], the “Median : APC-A” value came out at 677.

B7: GPC3A-45 L2K (bispecific antibody)
chain: QSVLTQPPSVSGTPGQRVIISCPGSTSNIGTNTVNWYQQFPGTAPKLLIYSNNQRPSGVPDRFSGSKSGTSASLAISGLQSEDEADYYCAAWDDSLNGVVFGGGTKLTVLGSRGGGGSGGGGSGGGGSLEMAQMQLVQSGGGLVKPGGSLRLSCAASGFTFSDYYMSWIRQAPGKGLEWVSYISSSGSTIYYADSVKGRFTISRDNAKNSLYLQMNSLRAEDTAVYYCARASDLYGDWGQGTLVTVSSTSGGGGSDVQLVQSGAEVKKPGASVKVSCKASGYTFTRYTMHWVRQAPGQGLEWIGYINPSRGYTNYADSVKGRFTITTDKSTSTAYMELSSLRSEDTATYYCARYYDDHYCLDYWGQGTTVTVSSGEGTSTGSGGSGGSGGADDIVLTQSPATLSLSPGERATLSCRASQSVSYMNWYQQKPGKAPKRWIYDTSKVASGVPARFSGSGSGTDYSLTINSLEAEDAATYYCQQWSSNPLTFGGGTKVEIKHHHHHH
Regarding B7, the Kd in experiment [1] turned out to be 2.4 nM. The molecule also registered an EC50 in experiment [2] of 0.12 µg/mL. Besides, in experiment [3], the Kd came to 3.5 nM, the koff was determined as 0.000455 s⁻¹ and the kon was 128000 M⁻¹ s⁻¹.

B8: GPC3A-55 L2K (bispecific antibody)
chain: QPVLTQPPSVSVAPGKTARITCGGNNIGSKSVHWYQQKPGQAPVLVIYYDSDRPSGIPERFSGSNSGNTATLTISRVEAGDEADYYCQVWDSSSDHYVFGTGTKVTVLGSRGGGGSGGGGSGGGGSLEMAQVQLVQSGAEVKKPGASVKVSCKASGYTFTSYYMHWVRQAPGQGLEWMGIINPSGGSTSYAQKFQGRVTMTRDTSTSTVYMELSSLRSEDTAVYYCARWHGGPYDYWGQGTLVTVSSTSGGGGSDVQLVQSGAEVKKPGASVKVSCKASGYTFTRYTMHWVRQAPGQGLEWIGYINPSRGYTNYADSVKGRFTITTDKSTSTAYMELSSLRSEDTATYYCARYYDDHYCLDYWGQGTTVTVSSGEGTSTGSGGSGGSGGADDIVLTQSPATLSLSPGERATLSCRASQSVSYMNWYQQKPGKAPKRWIYDTSKVASGVPARFSGSGSGTDYSLTINSLEAEDAATYYCQQWSSNPLTFGGGTKVEIKHHHHHH
On to B8, for which the Kd in experiment [1] was 0.86 nM. The same molecule gave an EC50 in experiment [2] of 0.045 µg/mL. For the same molecule, in experiment [3], the Kd stood at 2.3 nM, the dissociation rate constant (koff) amounted to 0.00161 s⁻¹ and the kon was determined as 705000 M⁻¹ s⁻¹.

B9: anti-GPC3 mIgG1 clone A-46 (antibody, V domains shown)
VH: QVQLVQSGAEVKKPGASVTVSCKASGYRFSNYGVSWVRQAPGQGLEWMGWISGSNGNTNYAQKFLGRVTMTTDTSTTTAYMELSSLRSDDTAVYYCARGNRRYYSPIIDPWGQGTLVTVSS
VL: QAVLTQPPSVSGTPGQRVTISCSGSSSNFGSNTVHWYQQVPGTAPKLLIFSNTQRPSEIPDRFSGSKSGTSASLAISGLQSEDEADYYCAAWDDSLTGVVFGGGTKLTVLG
notes: Fused to mouse IgG1 heavy chain and light chain constant regions; also called GPC3A mIgG1 clone A-46
As to B9, the “Median : PE-A” value in experiment [6] amounted to 9860.

B10: GPC3A-34 L2K (bispecific antibody)
chain: QPVLTQPPSASGTPGQRVTISCSGSSSNIGSNNVIWYQQLPGAAPKLLIYSNHRRPSGVPDRFSGSRSGTSASLAISGLQSEDEADYYCAAWDDSLDGYLFGTGTKVTVLGSRGGGGSGGGGSGGGGSLEMAQVQLQQWGAGLLKPSETLSLTCAVYGGSFSGYYWSWIRQPPGKGLEWIGEINHSGSTNYNPSLKSRVTISVDTSKNQFSLELSSVTAADTAVYYCARGYGGRFDYWGQGTLVTVSSTSGGGGSDVQLVQSGAEVKKPGASVKVSCKASGYTFTRYTMHWVRQAPGQGLEWIGYINPSRGYTNYADSVKGRFTITTDKSTSTAYMELSSLRSEDTATYYCARYYDDHYCLDYWGQGTTVTVSSGEGTSTGSGGSGGSGGADDIVLTQSPATLSLSPGERATLSCRASQSVSYMNWYQQKPGKAPKRWIYDTSKVASGVPARFSGSGSGTDYSLTINSLEAEDAATYYCQQWSSNPLTFGGGTKVEIKHHHHHH
notes: also called anti-GPC3xCD3 di-scFv derived from GPC3A-34
Turning to B10, in experiment [1], the Kd came to 2 nM. The molecule further returned an EC50 in experiment [2] of 0.11 µg/mL. In experiment [3], the Kd came to 3.5 nM, the koff was 0.0014 s⁻¹ and the kon came out at 400000 M⁻¹ s⁻¹.
